Data as given in publication PMC7559292 (Science (New York, N.Y.), 2020).
“And” between values parts separate entries of the source, which are not always exact repeats. Identical values can stand only once. Values belong to the binder of their own block, whether it stands above or below them.

B1: CTC1 (subunit of purified recombinant human CST) (natural protein, UniProt Q2NKJ3 1-1217, looked up)
chain: MAAGRAQVPSSEQAWLEDAQVFIQKTLCPAVKEPNVQLTPLVIDCVKTVWLSQGRNQGSTLPLSYSFVSVQDLKTHQRLPCCSHLSWSSSAYQAWAQEAGPNGNPLPREQLLLLGTLTDLSADLEQECRNGSLYVRDNTGVLSCELIDLDLSWLGHLFLFPRWSYLPPARWNSSGEGHLELWDAPVPVFPLTISPGPVTPIPVLYPESASCLLRLRNKLRGVQRNLAGSLVRLSALVKSKQKAYFILSLGRSHPAVTHVSIIVQVPAQLVWHRALRPGTAYVLTELRVSKIRGQRQHVWMTSQSSRLLLLKPECVQELELELEGPLLEADPKPLPMPSNSEDKKDPESLVRYSRLLSYSGAVTGVLNEPAGLYELDGQLGLCLAYQQFRGLRRVMRPGVCLQLQDVHLLQSVGGGTRRPVLAPCLRGAVLLQSFSRQKPGAHSSRQAYGASLYEQLVWERQLGLPLYLWATKALEELACKLCPHVLRHHQFLQHSSPGSPSLGLQLLAPTLDLLAPPGSPVRNAHNEILEEPHHCPLQKYTRLQTPSSFPTLATLKEEGQRKAWASFDPKALLPLPEASYLPSCQLNRRLAWSWLCLLPSAFCPAQVLLGVLVASSHKGCLQLRDQSGSLPCLLLAKHSQPLSDPRLIGCLVRAERFQLIVERDVRSSFPSWKELSMPGFIQKQQARVYVQFFLADALILPVPRPCLHSATPSTPQTDPTGPEGPHLGQSRLFLLCHKEALMKRNFCVPPGASPEVPKPALSFYVLGSWLGGTQRKEGTGWGLPEPQGNDDNDQKVHLIFFGSSVRWFEFLHPGQVYRLIAPGPATPMLFEKDGSSCISRRPLELAGCASCLTVQDNWTLELESSQDIQDVLDANKSLPESSLTDLLSDNFTDSLVSFSAEILSRTLCEPLVASLWMKLGNTGAMRRCVKLTVALETAECEFPPHLDVYIEDPHLPPSLGLLPGARVHFSQLEKRVSRSHNVYCCFRSSTYVQVLSFPPETTISIPLPHIYLAELLQGGQSPFQATASCHIVSVFSLQLFWVCAYCTSICRQGKCTRLGSTCPTQTAISQAIIRLLVEDGTAEAVVTCRNHHVAAALGLCPREWASLLDFVQVPGRVVLQFAGPGAQLESSARVDEPMTMFLWTLCTSPSVLRPIVLSFELERKPSKIVPLEPPRLQRFQCGELPFLTHVNPRLRLSCLSIRESEYSSSLGILASSC
B2: STN1 (subunit of purified recombinant human CST) (natural protein, UniProt Q9H668 1-368, looked up)
chain: MQPGSSRCEEETPSLLWGLDPVFLAFAKLYIRDILDMKESRQVPGVFLYNGHPIKQVDVLGTVIGVRERDAFYSYGVDDSTGVINCICWKKLNTESVSAAPSAARELSLTSQLKKLQETIEQKTKIEIGDTIRVRGSIRTYREEREIHATTYYKVDDPVWNIQIARMLELPTIYRKVYDQPFHSSALEKEEALSNPGALDLPSLTSLLSEKAKEFLMENRVQSFYQQELEMVESLLSLANQPVIHSASSDQVNFKKDTTSKAIHSIFKNAIQLLQEKGLVFQKDDGFDNLYYVTREDKDLHRKIHRIIQQDCQKPNHMEKGCHFLHILACARLSIRPGLSEAVLQQVLELLEDQSDIVSTMEHYYTAF

Legend:
[1] = biological target: the molecule itself; experiment: cryo-EM structure
[2] = biological target: B1; experiment: cryo-EM structure
[3] = biological target: B2; experiment: cryo-EM structure
[4] = biological target: the molecule itself; experiment: negative-stain EM

Binder: B1
binding result [1]: binds

Binder: B2
stoichiometry N [2]: 1

stoichiometry N [3]: 1 | binding result [2]: binds
B3: TEN1 (subunit of purified recombinant human CST) (natural protein)
chain: MLPKPGTYYLPWEVSAGQVPDGSTLRTFGRLCLYDMIQSRVTLMAQHGSDQHQVLVCTKLVEPFHAQVGSLYIVLGELQHQQDRGSVVKARVLTCVEGMNLPLLEQAIREQRLYKQERGGSQ

B4: human CTC1-STN1-TEN1 (CST) complex, purified recombinant heterotrimer (complex)
chain 1: AAGRAQVPSSEQAWLEDAQVFIQKTLCPAVKEPNVQLTPLVIDCVKTVWLSQGRNQGSTLPLSYSFVSVQDLKTHQRLPCCSHLSWSSSAYQAWAQEAGPNGNPLPREQLLLLGTLTDLSADLEQECRNGSLYVRDNTGVLSCELIDLDLSWLGHLFLFPRWSYLPPARWNSSGEGHLELWDAPVPVFPLTISPGPVTPIPVLYPESASCLLRLRNKLRGVQRNLAGSLVRLSALVKSKQKAYFILSLGRSHPAVTHVSIIVQVPAQLVWHRALRPGTAYVLTELRVSKIRGQRQHVWMTSQSSRLLLLKPECVQELELELEGPLLEADPKPLPMPSNSEDKKDPESLVRYSRLLSYSGAVTGVLNEPAGLYELDGQLGLCLAYQQFRGLRRVMRPGVCLQLQDVHLLQSVGGGTRRPVLAPCLRGAVLLQSFSRQKPGAHSSRQAYGASLYEQLVWERQLGLPLYLWATKALEELACKLCPHVLRHHQFLQHSSPGSPSLGLQLLAPTLDLLAPPGSPVRNAHNEILEEPHHCPLQKYTRLQTPSSFPTLATLKEEGQRKAWASFDPKALLPLPEASYLPSCQLNRRLAWSWLCLLPSAFCPAQVLLGVLVASSHKGCLQLRDQSGSLPCLLLAKHSQPLSDPRLIGCLVRAERFQLIVERDVRSSFPSWKELSMPGFIQKQQARVYVQFFLADALILPVPRPCLHSATPSTPQTDPTGPEGPHLGQSRLFLLCHKEALMKRNFCVPPGASPEVPKPALSFYVLGSWLGGTQRKEGTGWGLPEPQGNDDNDQKVHLIFFGSSVRWFEFLHPGQVYRLIAPGPATPMLFEKDGSSCISRRPLELAGCASCLTVQDNWTLELESSQDIQDVLDANKSLPESSLTDLLSDNFTDSLVSFSAEILSRTLCEPLVASLWMKLGNTGAMRRCVKLTVALETAECEFPPHLDVYIEDPHLPPSLGLLPGARVHFSQLEKRVSRSHNVYCCFRSSTYVQVLSFPPETTISIPLPHIYLAELLQGGQSPFQATASCHIVSVFSLQLFWVCAYCTSICRQGKCTRLGSTCPTQTAISQAIIRLLVEDGTAEAVVTCRNHHVAAALGLCPREWASLLDFVQVPGRVVLQFAGPGAQLESSARVDEPMTMFLWTLCTSPSVLRPIVLSFELERKPSKIVPLEPPRLQRFQCGELPFLTHVNPRLRLSCLSIRESEYSSSLGILASSC
chain 2: QPGSSRCEEETPSLLWGLDPVFLAFAKLYIRDILDMKESRQVPGVFLYNGHPIKQVDVLGTVIGVRERDAFYSYGVDDSTGVINCICWKKLNTESVSAAPSAARELSLTSQLKKLQETIEQKTKIEIGDTIRVRGSIRTYREEREIHATTYYKVDDPVWNIQIARMLELPTIYRKVYDQPFHSSALEKEEALSNPGALDLPSLTSLLSEKAKEFLMENRVQSFYQQELEMVESLLSLANQPVIHSASSDQVNFKKDTTSKAIHSIFKNAIQLLQEKGLVFQKDDGFDNLYYVTREDKDLHRKIHRIIQQDCQKPNHMEKGCHFLHILACARLSIRPGLSEAVLQQVLELLEDQSDIVSTMEHYYTAF
chain 3: LPKPGTYYLPWEVSAGQVPDGSTLRTFGRLCLYDMIQSRVTLMAQHGSDQHQVLVCTKLVEPFHAQVGSLYIVLGELQHQQDRGSVVKARVLTCVEGMNLPLLEQAIREQRLYKQERGGSQ
stoichiometry N [4]: 4 and 2
